Test results as given in the supplement of paper PMC9170038.

Test system: MS2 coat protein
Test: apparent KD of MS2 coat protein; designed switch direction (-1 OFF switch, 1 ON switch): -1; higher = weaker reporter binding
Procedure, shortened: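 An oligonucleotide input, 200 uM small-molecule ligand, or no input was present during titration of SNAP-549-labelled MS2 coat protein, which was doubled from 0.7 or 1.5 nM to 3 µM. Designed RNA switches had been transcribed on Illumina chips by stalled E. coli RNA polymerase. Apparent KD per design is the median over clusters of curves fitted to normalised cluster fluorescence.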

[1] = input ligand: microRNA oligo, concentration not stated

Sequence	apparent KD of MS2 coat protein (input ligand: FMN 200 uM)	apparent KD of MS2 coat protein [1]	apparent KD of MS2 coat protein (input ligand: none)
UGUUGUCGCGCAGGAUAUGAGGAUCACCCAUAUAAGGAUAUCGAAAGAGAAGUUCUGAGGAUCACCCAGAAGGGCGGGACAACU [pwkr exNG2 2xF5 2xFMN.32] (Eterna round: R96, puzzle: Exclusion NG 2)	389 nM	52.6 nM	58.5 nM
UGUUGUCGCGCAGGAUAUGAGGAUCACCCAUAUAGAGGAUAUGAAAAGAAGGUUCUGAGGAUCACCCAGAAGGGCGGGACAACU [pwkr exNG2 2xF5 2xFMN.19] (Eterna round: R96, puzzle: Exclusion NG 2)	384 nM	48.7 nM	67.4 nM
UGUUGUCGCGCAGGAUAUGAGGAUCACCCAUAUCAGGAUAUCGAAAGAGAAGUUCUGAGGAUCACCCAGAAGGGCGGGACAACU [pwkr exNG2 2xF5 2xFMN.33] (Eterna round: R96, puzzle: Exclusion NG 2)	342 nM	38 nM	47.8 nM
UGUUGUCGCGCAGGAUAUGCAUGAGGAUCACCCAUGCAACCACAUUUAACAUGAGGAUCACCCAUGUAGAAGGGCGGGACAACU [pwkr exNG2 2xF5 1xFMN.3] (Eterna round: R96, puzzle: Exclusion NG 2)	89 nM	25 nM	31.4 nM
UGUUGUCGCGCAGGAUAUUGUCAACAGGCAAUAGGAUAUCCGAAAGGAGAAGGAUCGCCAACAGGCGAGAAGGGCGGGACAACU [pwkr exNG2 2xF7 2xFMN.4] (Eterna round: R96, puzzle: Exclusion NG 2)	35.4 nM	478 nM	1200 nM
UGUUGUUACGUAGGAUAUUGUCAACAGGCAAUAGGAUAUGCGAAAGCAGAAGGAUCGCCAACAGGCGAGAAGGACGGGUUAACA [pwkr exNG2 2xF7 2xFMN.2] (Eterna round: R96, puzzle: Exclusion NG 2)	849 nM	771 nM	134 nM
UGUUGUUCAGGAUAUGAUGUAUAAUACAUGAGGAUCACCCAUGUAGAUCCUGAAUUAACAUCAGAAGGGAAUAUUG [salish99_ex5_r4_101] (Eterna round: R97, puzzle: Exclusion 5)	19 nM	–	17 nM
UGUUUGUCAGGAUAUGCUAGUGCUAGUGAAAGCUAGUGCUAGUAGAAGGGACAUGAGGAUCACCCAUGUGAACG [-27.1, -27 kcal, A 26%, 2bis-(ca)2] (Eterna round: R97, puzzle: Exclusion 4)	117 nM	–	54.1 nM
UUAAAGGCGGAGGAUAUGUAGGCUUUCGAGUCGACAGAAGGCCGCACAUGAGGAUCACCCAUGUGGUCCUCCAA [EX6 A.20] (Eterna round: R97, puzzle: Exclusion 6)	219 nM	–	51.8 nM
UUAAAUCAUGUAGGAUAUGCGUGGCAAAGCUAUGCAGAAGGACAUGAGGAUCACCCAUGUUCUAGCGUCUGCGUACAGAUGCUA [Mat - Exclusion NG 1 - Mod of JL - D77] (Eterna round: R96, puzzle: Exclusion NG 1)	249 nM	34.9 nM	42.6 nM
UUAAAUCAUGUAGGAUAUGCGUGGCGAAGCUAUGCAGAAGGACAUGAGGAUCACCCAUGUGCUUCCGUCUGAGAACAGACGGUA [Mat - Exclusion NG 1 - Mod of JL - D12] (Eterna round: R96, puzzle: Exclusion NG 1)	91.8 nM	63.9 nM	93.1 nM
